Data: paper doi:10.1101/2022.01.31.478465 (bioRxiv, 2022)

Target: T1, AtPRP40b, recombinant (A. thaliana, UniProt F4JCC1 1-992)
T1 sequence: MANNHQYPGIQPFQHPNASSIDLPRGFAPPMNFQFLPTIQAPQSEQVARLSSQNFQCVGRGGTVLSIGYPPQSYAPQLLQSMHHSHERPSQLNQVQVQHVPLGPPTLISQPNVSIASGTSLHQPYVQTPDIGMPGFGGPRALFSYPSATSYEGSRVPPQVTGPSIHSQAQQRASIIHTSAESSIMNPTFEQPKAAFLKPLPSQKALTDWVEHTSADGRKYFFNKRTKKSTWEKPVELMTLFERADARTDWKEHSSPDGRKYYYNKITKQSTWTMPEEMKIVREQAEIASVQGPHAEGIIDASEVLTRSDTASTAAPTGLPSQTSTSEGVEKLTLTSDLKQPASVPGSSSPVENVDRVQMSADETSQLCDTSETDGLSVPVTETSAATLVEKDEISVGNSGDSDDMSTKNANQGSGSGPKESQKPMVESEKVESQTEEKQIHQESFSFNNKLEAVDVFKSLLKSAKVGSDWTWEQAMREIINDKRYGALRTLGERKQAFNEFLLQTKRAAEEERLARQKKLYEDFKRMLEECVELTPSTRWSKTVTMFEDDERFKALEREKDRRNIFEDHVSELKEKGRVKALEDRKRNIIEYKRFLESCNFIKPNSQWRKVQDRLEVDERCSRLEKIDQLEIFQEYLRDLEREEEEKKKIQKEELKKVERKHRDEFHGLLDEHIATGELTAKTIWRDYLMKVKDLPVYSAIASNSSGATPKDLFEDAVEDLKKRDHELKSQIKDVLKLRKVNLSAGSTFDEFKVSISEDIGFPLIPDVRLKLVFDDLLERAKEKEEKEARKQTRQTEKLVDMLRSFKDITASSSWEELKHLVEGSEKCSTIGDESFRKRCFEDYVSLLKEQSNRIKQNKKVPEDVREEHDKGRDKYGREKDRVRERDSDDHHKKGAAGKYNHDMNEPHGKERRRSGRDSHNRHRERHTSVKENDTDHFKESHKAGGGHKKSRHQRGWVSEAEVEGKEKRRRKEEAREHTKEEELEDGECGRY
Assay: pull-down

B1: SERRATE (SE), full length, recombinant (natural protein, A. thaliana, UniProt Q9ZVD0 1-720, looked up)
chain: MADVNLPPSDSVDNRLPEKSTSSSPPPPPPSSSLPQQEQEQDQQQLPLRRERDSRERRDERDIERPPPNRRERDRSPLPPPRRDYKRRPSLSPPPPYRDRRHSPPQRRSPPQKRYRRDDNGYDGRRGSPRGGYGPPDRRFGYDHGGGYDREMGGRPGYGDERPHGRFMGRYQDWEGGRGGYGDASNSGNPQRDGLMSYKQFIQELEDDILPSEAERRYQEYKSEYITTQKRAFFNTHKEEDWLKNKYHPTNLLSVIERRNDLAQKVAKDFLLDLQSGTLDLGPAVTALNKSGRTSEPNSEDEAAGVGKRKRHGMGGAKENELLSAAPKAPSFTSDPKRILTDVEQTQALVRKLDSEKKIEENVLQGSETEKSGREKLHSGSTGPVVIIRGLTSVKGLEGVELLDTLVTYLWRVHGLDYYGKVETNEAKGLRHVRAEGKVSDAKGDENESKFDSHWQERLKGQDPLEVMAAKEKIDAAATEALDPHVRKIRDEKYGWKYGCGAKGCTKLFHAAEFVYKHLKLKHTELVTELTTKVREELYFQNYMNDPNAPGGQPATQQSGPRDRPIRRKPSMENRLRDDRGGRRERDGRANGNDRNDRSEDQQRGDNDGGNPGEVGYDAFGGQGGVHVPPFLSDINPPPMLMPVPGAGPLGPFVPAPPEVAMQMFRDPSGPNPPFEGSGRGGPAPFLLSPAFRQDPRRLRSYQDLDAPEEEVTVIDYRSL
binding result: binds
